Assay: yeast display, Sf9 membrane polyspecificity reagent, FACS + sequencing; frameworks hold sequencing errors
Summary of the method: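 Sorting gates, low and high (top ~1%), were placed on anti-HA fluorescence to track expression and on streptavidin fluorescence to track reagent binding. A clone's polyreactivity label is taken from the gate it came out of. The reagent was 10% biotinylated, detergent-solubilized Sf9 membrane, applied for 1 hour at 4 °C to galactose-induced yeast display cells.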

Row | Sequence | polyreactivity (PSR sort gate)
1 | QVQLVESGGGLVQAGGSLRLSCAASGRTFALYAMGWYRQAPGKERELVAAISSGGSTYYADSVKGRFTISRDNAKNTVYLQMNSLKPEDTAVYYCNARPKWGNRQSVRGYYILSPGGRMNYWGQGTQVTVSS | high polyreactivity
2 | QVQLVESGGGIVQAGGSLRLSFAASGSTFAGYAMGLYREAPGKERELVATFTYSGGSTYYADSVKGRFSISRDNAKNTVYLQMNSLKPEDTAVYYCAKNASYLWGYEYWGQGTQVTVSS | low polyreactivity
3 | QVQLVESGGGLVQAGGSLRLSCAASGSTFGYNAMGWYRQAPGKERELVAAISWRGGNTYYADSVKGRFTISRDNAKNTVYLQMNSLKPEDTAVYYCNKVWPRYYVHGGSRVPEYDYWGQGTQVTVSS | high polyreactivity
4 | QVQLVESGGALVQAGGSLRLSSAASGLTFYYYAMGRYRQAPGKERELVAAITGSGGRTYYADSVKGRFTISRDNAKNNVYLQMNSLKPEDTAVYYCAASWPNYLYEYWGQGTQVTVSS | high polyreactivity
5 | QVQLVESGGGLFQAGVSLTLSFAASGSIFDINAMGWYRQEPWKETDLVAAIRSGDRTHYADSVKGRFTISRDNAMNTVYLQMNSLIPEDTAVYYCAADRFIYLNRELDYWGQGTQVTVSS | low polyreactivity
6 | QVQIVESGGGLVQAGGSLRLSCAASGRIFAGYAIGWYRQAPGKERELVAAISSGGSTYYADSVKGRFTISRDNAKNTVYLQMNSLKPEDTAVYYCSAVGRRVYGTKFYYWGQGTQVTFSS | high polyreactivity
7 | QVQLVESGGGLVQAGGSLRLSSAASGSTLYRYAMGWYRQAPGKERELVAAISRSGGNTYYADSVKGRFTISRDNAKNTVYLQMNSLKPEDTAVYYCNADSFIRYDYWGQGTQVTVSS | high polyreactivity
8 | QVQLVESGGGLVQAGGRLRLSCAASGSIILFKDMGWYGQAPGKERELVADITWSGGSTYYADSVKGRFTISCDNAKNTVYLQMHSLKPEDTAVDYCADDPDYYFTRGNYQWGYYWGQGTQVTVSS | low polyreactivity
9 | QVQLVESGGGLVQAGGSLRLSCAASGGTFSPYDMGWYRQAPGKERELVASITGSGGSTYYADSVKGRFTISRGNAKNTVYLQMNSLKPEDTAVYYCAAQGYCTYWPYLLRLYEYWGHGTQVTVSS | low polyreactivity
10 | QVQLVESGGGLVQAGGSLRLSCAASGSTILYNTMGWYRQAPGKERELVATITSRGDRTYYADSVKGRFTISRDNAKNTVYLQMNSLKPEDTAVDYCAADRTDFWPYDYWGQGTQVTVSS | low polyreactivity
11 | QVQLVESGGGLVQAGGSLRLSCAASGRIFYGYAMGWYRQAPGKERELVAAISSSGGSTYYADSVKGRFTISRDNAKNTVYLQMNSLKPEDTAVYYCNAQRYRPGYWYDYWGQGTQVTVSS | high polyreactivity
12 | QVQLVESGGGLVQAGGSLRLSCAASGRSFAWYTMGWYRQAPGKERELVAAISGSGGSTYYADSVKGRFTISRDNAKNTVYLQMNSLKPEDSALYYGARRVDSYYGHTRFYYWGQGTQVTVSS | high polyreactivity
13 | QVQLVESGGGLVQAGGSLRLSCAASGITFGLYAMGWYRQAPGKERELVAAITWRGGSTYYADSVKGRFTISRDNAKNTVYLQMNSLKPEDTAVYYCAADFSGYSDDYWGQGTQVTVSS | high polyreactivity
14 | QVQLVESGGGLVQAGGSLRLSCAASGFIFSGNAMGWYRQAPGKEREFVAAISTSAGTTNYADSVKGRFTISRDNAKNTVYLQMNSLKPEDTAVYYCAARSTRRRIYGYWGQGTQVTVSS | high polyreactivity
15 | QVQLVESGGGLVQAGGSLRLSCAASGSIFYGNAMGWYRQAPGKERELVAGISWSGGSTYYADSVKGRFTISRDNAKNSVFLQMNSLKPEETAVYYCAAVRWGSYTLSDDYWGQGTQLTVSS | low polyreactivity
16 | QVQLVESGGGLVQAGGSLRLSCAASGSIFVWYDMGWYRQAPGKERELVATISLSGVSTYYADSVKGRFTISRDNAKNPVYLQLNSLKPEDTAVYYCAADFVEQGEDDYWGQGTQVTVSS | low polyreactivity
17 | QVQLVESGGGLVQAGGSLRLSCAASGITFRSYVMGWYRQAPGKEMEFVAVITKSGGSTYYADSVKGRFTISRDNAMNTVYLQMNSLKPEDTAVYYCGAEYARSSRYKISSEMYYWGQGTQVTVSS | high polyreactivity
18 | QVQLVESGGGLVQAGGSLRFSCAASGSTFGDYTMGWYRQAPGKERELVAAISTSGTITYYADSVKGRFTISRDNAKNTVYLQMNSLKPEDTAVYYCAKLSQYTPVNDGYYWGQGTQVTVSS | low polyreactivity
19 | QVQLVESGGGLVQAGGSLRLSCAASGRTFIYYAMGWYRQAPGKERELVAGITYSVGSTYYADSVKGRFTISRDNEKNTVYLQMNSLKPEDTAVYYCAYYYWGQGTQVTVSS | low polyreactivity
20 | QVQLVESGGGLVQAGGRLRLRCDPSGLTSYYAMGWYRQAPGKERELVSRIRSRSGSTYYADSVKGRFTISRDNAKNTVYLQMNSLKPEDTAVYYCNARQLLYAIRDSWGQVTQVTVSS | high polyreactivity
21 | QVQLVESGGGLVQAGGSLRLTCAACGRIFNKYAMVWYIQAPGKERELVAAINGGGSTNYADSVKGRFTISRDNAKNTDYLQMNSLKAEDTAVYYCSTTPDGEGGYWGQGTQVTVSS | low polyreactivity
22 | QVQLVESGGGLVQAGGSLRLSCAASGRTFPYNAMGWYRQAPGKERELVAAISYSGGRTYYADSVKGRFTISRDNAKNTVYLLMNSLKPEDTAVYYCNALGSGREDDYWGQGTQVTVSS | high polyreactivity

Row | Sequence | polyreactivity (PSR sort gate)
23 | QVQLVETGGGLVQAGGSLRISCAASGIIFRNYAKGWYTQAPGKERELVADISWSGGTTYYADSVKGRFTISRDNEKHTVYLQMNSLKPEDTAVYYCAASSYRRQYGYWGQGTQVTVSS | high polyreactivity
24 | QVQLEESGGGIVQAGGTLRLTCAASGRIYATNAMGWSRQAPGKERELVATITRSAGRTYYADSVKGRFTISGDNAKNTVYLQMNSLKPEDTAVYYCAASYWDTEPGYREYDYWGQGTEVTVSS | low polyreactivity
25 | QVQLVESGGGLVQAGGSLRLSCAASGYIFYFNAMGWYRQAPGKEREVVAAITFSGGATYYADSVKGRFTISRDTAKNTVYLQMNSLKPEDTAVYYCAAASRRSGAYTFYRTTSGAYGYWGQGTQVTVSS | high polyreactivity
26 | QFKLVESGGGLVQAGGSLRLSCAASGVIIQGNAMGWYRQAPGNEMELVAAISSSVSTYYADSVKGRFTISRDNAKNTVYLQMTSLKPEDTAVYYCNAGFPLSLWLGDYWGHGTQVTVSS | low polyreactivity
27 | QVQLVESGGGLVQAGGSLRLSCASSGRTFYPYAMGWYRQAPGKERDLDAAITWSGGSTYYADSVKGRFTISRDYAKITVYLQMNSLKPEDTAVYYCNATYEAYIYYEYDYWGQGTQVTVSS | low polyreactivity
28 | QVQLVESGGGLVQAGGSLRLSCSASGSIFGSYAMGGYRQEPGNERELVAAISWRGGNTYYADSVKGRFTISRDNAKNTVYLQMNSLSPEDTAVYYCAAVAYSYGSYRRYYYWGLGTQVTVSS | high polyreactivity
29 | QVQLVESGGGLVQAGGSLRLSCAASGSIFHWYAMGWYRQAPGKERELVAAITWSGDTTYYADSVKGRFTISRDNAKNTVYLQMNSLKPEDTAVYYCAVERDDQDYDYWGQGTQVTVSS | low polyreactivity
30 | QVQIVESGGGLVQAGGSLRLSCAASGRTVVYNSMGWYRQAPGKERELVAAITRSGDSSYYADSVKGRFSISRDNAKNPVYLQMNSLKPEDTAVYYCNAVSKRYWLMDYWGQGTQVTVSS | high polyreactivity
31 | QVQLVESGGGLVQAGGSLRLSCAASGRIFSSYTMGWYRQAPGKERELVAAISWRGGSTYYADSVKGRFTISRDNAKNTVYLQMNSLKPEDTAVYYCAADSRSDPGDYWGQGNQVTVSS | low polyreactivity
32 | QVHLVESGGGLVQAGGSLRLSCAAYGSTFTWYARGWYRQAPGKERELVADISYGGGSTYYADSVKGRFTISRDNAKNTVYLQMNSLKPEDTAVYYCAAESIPYYRYDYWGQGSQVTVSS | low polyreactivity
33 | QVQLVESGGGLVQAGGSLRLRCAASGSTFGYNAMGWYRQAPGKESELVAAISSSGGTTYYADSVKARFTISRDNAKNTVYLQMNSLKPEDTAVYYCAADHTVGRYEFEFWGQGTQVTVSS | low polyreactivity
34 | QVQLVESCGGIVQAGGSLRLICAASGRIFDSNAMGWYRQSPGKETELVAAITTSGGSTFYADSVKVRFTISRDNAMNTVYLQMISLKPEDTAVYYCAAGYSFYYHAIFPFDYWGQGNQVTVSS | high polyreactivity
35 | QVQLVESGGGLVQAGGSLRLSCAASGRSFVGNAMGWYRQAPGKERELVASITRGGRTNYADSVNGRFTISRDNAKNTVYLQMNSLKPEDTAVYYCNAPGVTRAYLVGYDYWGQGTQVTVSS | low polyreactivity
36 | QVQLVESGGGLVQAGGSLRLSCAASGITFLVYVMGWYRQAPGKERELVAAISSGGSTYYADSVKGRFTISRDNAKNTVYVQMNSLKPEDTAVYYCAAERKLYGLYDYWGQGTQVTVSS | low polyreactivity
37 | QVQLVESGGGIVQAGGSLRLTCAASGRIFYYYAMGWYRQAPGKEREFVAASSRSGGSTYYADSVKGRFTISRDNAKNTVYLQMNSLKPEDTAVYYCNAVRSYRGDFKYDWGQGTQVTVSS | high polyreactivity
38 | QVQLVESGGGLVQAGGSLRLSCAASGYIFEIYAMGWYRQAPGKERELVAAISTRGGRTYYADSVKGRFTISRDNAKNTVYLEMKSLKPEDTAVYYCARESSIVPYGYWGQGTQVTVSS | low polyreactivity
39 | QVQLVESGGRLVQAGGSLRLSCAASGFTYSPYAMGWYRQAPWKESELVAAITSSGGSTYYADSVKGRFTISRDNANNSVYLQMKSLKPEDTAVYYSAADYGYKYYWRYGYWGQGTQVTVSS | high polyreactivity
40 | QVQLVESGGGLVQAGGSLRLSCAASGRTFGPYSMGWYRQAPGKERELVAAISSSGSTTYYADSVKGRFTISRDNAKNTVYLQMNSLKPEDTAVYYCAKPSSRDSPYDYWGQGSQVTVSS | low polyreactivity
41 | QVQLVESGGGLVQAGGSLRLSCAASGSTFRGYAMGWYRQAPGKERELVATITSGGSTNYADSVKGRFTISRDNAKNTVYLQMNSLKPEDTAVYYCNARWVPRYWKYFPANYGYWGLGTQVTVSS | high polyreactivity
42 | EVQLVESGGGLVHAGGSLRLICAASGFTFTGYTMGWYRQAPGKERELVATISGSGGNTYYADSVKGRFTISRDNAKNTVYLQINSVKPEDTAVYYCARLRSGPRVLYYYWGQGTQVTVSS | low polyreactivity
43 | QVQLVESGGGLVQAGGSLRLSSAASGSIFYVYAMGWYRQAPGKERELVAAISRRGARTYYADSVKGRFTISRDNEKNTVYLQMNILKPEDTAVYYCYADQYHTVGYSAEYEYWGQGTQVTVSS | low polyreactivity

Source: the nanobody polyreactivity screen of Harvey et al. (2022)
